Molecular target: mitoribosomal protein uL12m (human (endogenous in HEK293S GnTI), UniProt P52815 37-198)
Assay: cryo-EM structure; 150 nM 55S mitoribosomes incubated with 5 uM EF-G1mt and 1 mM GMPPCP at 37 °C for 5 min in HEPES polymix buffer; three classes (I, II, III) from one sample
Settings: both partners purified

B1: human mitochondrial elongation factor G1 (natural protein)
chain: not shown
notes: also called EF-G1mt; source: E. coli BL21(DE3) (RIL), purified (Ni-NTA, cation exchange TSKgel SP-5PW)
B1: binds.
